Source: the Immune Epitope Database (IEDB)
pIC50, pKd: −log10 of the molar value.

Assays:
[1] = target: HLA-B*40:01; assay: IEDB peptide-MHC binding, purified MHC/competitive/radioactivity; filed as Kd, often an IC50 or EC50 that approximates it; ≥ and ≤ were set here for values at or beyond the usual limits of such assays
[2] = target: HLA-A*26:01; assay: as above
[3] = target: HLA-A*02:06; assay: as above
[4] = target: HLA-A*02:02; assay: as above
[5] = target: HLA-A*02:03; assay: as above
[6] = target: HLA-A*32:01; assay: as above
[7] = target: HLA-B*44:02; assay: as above; conditions: source organism: Dengue virus 4 Philippines/H241/1956
[8] = target: HLA-A*02:01; assay: IEDB peptide-MHC binding, purified MHC/competitive/fluorescence; ≥ and ≤ were set here for values at or beyond the usual limits of such assays
[9] = target: HLA-A*01:01; assay: IEDB peptide-MHC binding, purified MHC/competitive/radioactivity; filed as Kd, often an IC50 or EC50 that approximates it; ≥ and ≤ were set here for values at or beyond the usual limits of such assays
[10] = target: HLA-A*02:01; assay: IEDB peptide-MHC binding, purified MHC/direct/fluorescence; filed as Kd, often an IC50 or EC50 that approximates it; ≥ and ≤ were set here for values at or beyond the usual limits of such assays
[11] = target: HLA-B*44:03; assay: IEDB peptide-MHC binding, purified MHC/competitive/radioactivity; filed as Kd, often an IC50 or EC50 that approximates it; ≥ and ≤ were set here for values at or beyond the usual limits of such assays
[12] = target: HLA-B*53:01; assay: as above; conditions: source organism: Dengue virus 4 Philippines/H241/1956
[13] = target: HLA-A*30:02; assay: as above; conditions: source organism: Dengue virus 3 Martinique/1243/1999
[14] = target: HLA-B*40:01; assay: IEDB peptide-MHC binding, purified MHC/direct/fluorescence; filed as Kd, often an IC50 or EC50 that approximates it; ≥ and ≤ were set here for values at or beyond the usual limits of such assays; conditions: source organism: Mammarenavirus juninense
[15] = target: HLA-A*69:01; assay: as above
[16] = target: HLA-B*07:02; assay: as above; conditions: source organism: Human herpesvirus 4 strain B95-8
[17] = source organism: Dengue virus 3 Martinique/1243/1999
[18] = source organism: Dengue virus 1 Brazil/97-11/1997
[19] = source organism: Vaccinia virus WR
[20] = source organism: Dengue virus 4 Philippines/H241/1956
[21] = source organism: Vaccinia virus Copenhagen
[22] = source organism: Mammarenavirus brazilense
[23] = source organism: Dengue virus 2 Jamaica/1409/1983
[24] = source organism: Sudan ebolavirus
[25] = source organism: Shigella dysenteriae
[26] = source organism: Lassa virus Josiah

LETKGVERL
pKd [1, 17]: 7.66

ELIMKDGRKL
pKd [2, 17]: 4.90

SVVETLEQM
pKd [2, 18]: 6.86

LAEYIRHRNT
pKd [3, 19]: ≤ 4.16
pKd [4, 19]: ≤ 4.44
pKd [5, 19]: 4.85

DEDHAHWTEA
pKd [6, 18]: 6.41

KTHVSSWEEV
pKd [6, 18]: 5.17

CESCVYNMM
pKd [1, 20]: 6.70
pKd [7]: 6.74

LIAGIILLI
pKd [3, 21]: 5.09
pKd [4, 21]: 9.76
pKd [6, 21]: ≤ 4.11
pKd [5, 21]: 7.41

LSNCVHPAV
pKd [3, 22]: 6.34
pKd [4, 22]: 6.37
pKd [5, 22]: 5.96

NYADRRWCFD
pKd [6, 23]: ≤ 4.28

AGPPKAENT
pIC50 ([8]; source organism: Zaire ebolavirus): 4.18

YLFSQNYSF
pKd [6, 19]: 8.86

FISIYSRPKI
pKd [3, 19]: 6.40
pKd [4, 19]: 7.64
pKd [5, 19]: 6.99

KTDWLPMTV
pKd ([9]; source organism: Dengue virus 3 Sri Lanka/1266/2000): 7.25

ILHNIYRLFT
pKd [3, 19]: 5.92
pKd [4, 19]: 6.90
pKd [5, 19]: 7.97

LVCGLRQLA
pIC50 [8, 24]: 5.12

GLENGLNYI
pKd ([10]; source organism: Homo sapiens): 6.08

LEFFLMVLLI
pKd [11, 18]: 5.04
pKd [1, 18]: 5.00

VTYLALIATF
pKd [9, 17]: ≤ 4.29
pKd [2, 17]: ≤ 4.67

ATALILVSF
pKd [6, 19]: 8.85

ILLKIVTQF
pKd ([6]; source organism: Dengue virus 4 Dominica/814669/1981): 6.39

LATGPVLTLW
pKd [12]: 7.35

ILGPDCCIE
pIC50 [8, 24]: 4.55

VHQIFGSAY
pKd [13]: 5.00

YLSKEDRII
pKd [3, 19]: 4.98
pKd [4, 19]: 6.52
pKd [5, 19]: 6.36

QEHDCLQIV
pKd [14]: 5.83

ALELGRKTL
pKd [10, 25]: 5.10
pKd [15, 25]: ≤ 4.70

STTRGALIF
pKd [6, 19]: 6.53

GMSIVCIVA
pKd [3, 19]: 5.35
pKd [4, 19]: 6.72
pKd [5, 19]: 6.18

AVLSEYETMV
pKd [3, 19]: 7.63
pKd [4, 19]: 9.12
pKd [5, 19]: 8.83

LVQYIKFIF
pKd [6, 19]: 7.70

QERGKSLLF
pKd [11, 18]: 6.93

NMINKLYGYA
pKd [3, 19]: 6.86
pKd [4, 19]: 8.80
pKd [5, 19]: 9.36

SLALKNSQA
pKd [3, 19]: 4.72
pKd [4, 19]: 6.18
pKd [5, 19]: 6.34

LTDYGALTL
pKd [9, 18]: 6.70

PVIVPDIKL
pKd [3, 19]: ≤ 4.29
pKd [4, 19]: ≤ 4.39
pKd [5, 19]: ≤ 4.49

SQSTIPETI
pKd [6, 23]: ≤ 4.62

KTEHCDDFM
pKd [3, 19]: 5.60
pKd [4, 19]: 5.19
pKd [5, 19]: 4.74

YVILTILTII
pKd [3, 20]: 8.62
pKd [12]: 5.27

YQSFLFWFL
pKd [3, 19]: 7.40
pKd [4, 19]: 9.42
pKd [5, 19]: 8.60

TIEDDKIVTM
pKd [3, 19]: ≤ 4.58
pKd [4, 19]: 4.77
pKd [5, 19]: 4.76

EVEDYGFGMF
pKd [2, 20]: 7.14

SEAVNDSRFW
pKd [11, 20]: 7.38
pKd [7]: 7.94

SEIQLTDYG
pKd [11, 18]: 6.36

FSTSFYLISI
pKd [3, 26]: 8.03
pKd [4, 26]: 8.67
pKd [5, 26]: 7.28

VPAPAGPIV
pKd ([15]; source organism: Human herpesvirus 4 strain B95-8): 6.36
pKd [16]: 7.63

KLGEFYNQMM
pIC50 ([8]; source organism: Influenza B virus): 5.55

SIDHCSSFI
pKd [3, 19]: 6.70
pKd [4, 19]: 6.20
pKd [5, 19]: 7.89
